# Reference: IntAct's records for PubMed 19176810
# Biological target: fadd_human FADD (UniProt Q13158)
# UniProt Q13158, sequence (Q13158 whole entry): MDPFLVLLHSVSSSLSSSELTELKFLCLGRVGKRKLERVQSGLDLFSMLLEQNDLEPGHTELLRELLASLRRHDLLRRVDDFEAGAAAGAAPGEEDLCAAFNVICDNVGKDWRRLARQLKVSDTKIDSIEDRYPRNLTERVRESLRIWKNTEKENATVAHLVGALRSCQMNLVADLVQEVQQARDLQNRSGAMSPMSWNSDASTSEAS
row,Substance,effect of a mutation on the interaction
1,"Leucine-rich repeat serine/threonine-protein kinase 2 (Homo sapiens), Q5S007 R1441C",increasing interaction
2,"Leucine-rich repeat serine/threonine-protein kinase 2 (Homo sapiens), Q5S007 G2019S",increasing interaction
3,"Leucine-rich repeat serine/threonine-protein kinase 2 (Homo sapiens), Q5S007 Y1699C",increasing interaction
4,"Leucine-rich repeat serine/threonine-protein kinase 2 (Homo sapiens), Q5S007 I2020T",increasing interaction
